Experimental data: US20050282743A1, “Molecular interactions in cells” (Arbor Vita Corporation, priority 2001, published 2005)
Blank lines part the entries; values can stand above or below the sequence they belong to. Ends that are not written are not given here. * marks the point of attachment. Biotin = O=C1N[C@H]2[C@H](CS[C@H]2CCCCC(=O)*)N1

Assays:
Test in all cases: G' assay (10 uM PL peptide), results of TABLE 7 and TABLE 12
Assay type in all cases: binding
[1] = molecular target: T1, PDZ protein (GST-PDZ fusion) (Homo sapiens, UniProt Q12959); details: PDZ DLG1, PDZ Domain 1, 2
T1 construct: made in house; host or cells: E. coli (DH5alpha, BL21 or JM109)
T1 sequence (Q12959 whole entry, the tested form may be a part): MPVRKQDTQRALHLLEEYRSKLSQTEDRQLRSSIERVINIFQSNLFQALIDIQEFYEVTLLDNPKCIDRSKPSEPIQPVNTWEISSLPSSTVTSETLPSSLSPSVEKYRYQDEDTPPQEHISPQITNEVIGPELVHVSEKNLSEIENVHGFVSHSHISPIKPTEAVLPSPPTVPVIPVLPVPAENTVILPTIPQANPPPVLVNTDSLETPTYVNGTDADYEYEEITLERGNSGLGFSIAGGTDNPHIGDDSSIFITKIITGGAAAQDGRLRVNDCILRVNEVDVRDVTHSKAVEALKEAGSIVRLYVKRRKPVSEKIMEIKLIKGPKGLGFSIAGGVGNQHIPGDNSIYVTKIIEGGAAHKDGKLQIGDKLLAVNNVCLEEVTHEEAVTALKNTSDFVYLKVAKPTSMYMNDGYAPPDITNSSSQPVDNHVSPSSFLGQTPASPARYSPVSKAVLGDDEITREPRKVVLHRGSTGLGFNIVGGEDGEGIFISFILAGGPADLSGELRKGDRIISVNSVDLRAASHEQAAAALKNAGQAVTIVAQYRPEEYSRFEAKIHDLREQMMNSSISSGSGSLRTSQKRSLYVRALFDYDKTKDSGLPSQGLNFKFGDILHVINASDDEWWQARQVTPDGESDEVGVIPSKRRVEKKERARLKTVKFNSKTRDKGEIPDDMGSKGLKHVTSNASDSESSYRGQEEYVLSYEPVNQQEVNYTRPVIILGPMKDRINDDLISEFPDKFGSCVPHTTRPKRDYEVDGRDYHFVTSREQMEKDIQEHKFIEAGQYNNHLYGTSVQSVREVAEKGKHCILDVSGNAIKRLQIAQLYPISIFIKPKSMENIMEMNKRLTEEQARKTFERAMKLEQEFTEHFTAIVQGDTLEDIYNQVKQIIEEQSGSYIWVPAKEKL
Excerpt: (§1) Each page of TABLE 7 and 12 includes seven columns. The columns in each table are numbered from left to right such that the left-most column in each table is column 1 and the right-most column in each table is column 7. Thus, the first column in each table is labeled “AVC ID”; this column simply lists an internal reference number used to refer to the carboxyl-terminal amino acids of the PL proteins listed in the second column. […] All PL peptides were biotinylated at the amino-terminus and the sequences of these PL peptides are presented in TABLE 8 (see end of specification).
(§2) This column provides the gene name for the PDZ portion of the GST-PDZ fusion that interacts with the PDZ-ligand to the left. For PDZ domain-containing proteins with multiple domains, the domain number is listed to the right of the PDZ (i.e., in column 5 labeled “PDZ Domain”), and indicates the PDZ domain number when numbered from the amino-terminus to the carboxy-terminus.
(§3) The third column labeled “Peptide Optimal Concentration” in the tables is a number reflective of the binding interaction between the PL protein and PDZ protein. […] The column labeled “Protein Optimal Concentration” refers to the protein concentration used to assay PL interaction (in ug/ml); a ‘0’ is indicative of 5 ug/ml protein concentration; any other value represents the concentration (in ug/ml) used to determine the dissociation constant for a given interaction.
(§4) Finally, the seventh column labeled “Classification” is another measure of the level of binding. In particular, it provides an absorbance value at 450 nm which indicates the amount of PL peptide bound to the PDZ protein. The following numerical values have the following meanings: ‘1’—A450 nm 0-1; ‘2’—A450 nm 1-2; ‘3’—A450 nm 2-3; ‘4’—A450 nm 3-4; ‘5’—A450 nm of 4 more than 2× repeated; ‘0’—A450 nm 0, i.e., not found to interact. Thus, higher numbers indicate stronger interactions.
(§5) For convenience, the assay conditions described in this section are referred to as the “G′ assay” and the “G″ assay,” with the specific conditions described in the preceding section on G assays being referred to as the “G^0 assay.” The “G′ assay” is identical to the “G^0 assay” except at step (2) the peptide concentration is 10 uM instead of 20 uM.

[2] = molecular target: T2, PDZ protein (GST-PDZ fusion) (Homo sapiens, UniProt Q5TCQ9); details: PDZ KIAA1634, PDZ Domain 1
T2 construct: made in house; host or cells: E. coli (DH5alpha, BL21 or JM109)
T2 sequence (Q5TCQ9 1-1481): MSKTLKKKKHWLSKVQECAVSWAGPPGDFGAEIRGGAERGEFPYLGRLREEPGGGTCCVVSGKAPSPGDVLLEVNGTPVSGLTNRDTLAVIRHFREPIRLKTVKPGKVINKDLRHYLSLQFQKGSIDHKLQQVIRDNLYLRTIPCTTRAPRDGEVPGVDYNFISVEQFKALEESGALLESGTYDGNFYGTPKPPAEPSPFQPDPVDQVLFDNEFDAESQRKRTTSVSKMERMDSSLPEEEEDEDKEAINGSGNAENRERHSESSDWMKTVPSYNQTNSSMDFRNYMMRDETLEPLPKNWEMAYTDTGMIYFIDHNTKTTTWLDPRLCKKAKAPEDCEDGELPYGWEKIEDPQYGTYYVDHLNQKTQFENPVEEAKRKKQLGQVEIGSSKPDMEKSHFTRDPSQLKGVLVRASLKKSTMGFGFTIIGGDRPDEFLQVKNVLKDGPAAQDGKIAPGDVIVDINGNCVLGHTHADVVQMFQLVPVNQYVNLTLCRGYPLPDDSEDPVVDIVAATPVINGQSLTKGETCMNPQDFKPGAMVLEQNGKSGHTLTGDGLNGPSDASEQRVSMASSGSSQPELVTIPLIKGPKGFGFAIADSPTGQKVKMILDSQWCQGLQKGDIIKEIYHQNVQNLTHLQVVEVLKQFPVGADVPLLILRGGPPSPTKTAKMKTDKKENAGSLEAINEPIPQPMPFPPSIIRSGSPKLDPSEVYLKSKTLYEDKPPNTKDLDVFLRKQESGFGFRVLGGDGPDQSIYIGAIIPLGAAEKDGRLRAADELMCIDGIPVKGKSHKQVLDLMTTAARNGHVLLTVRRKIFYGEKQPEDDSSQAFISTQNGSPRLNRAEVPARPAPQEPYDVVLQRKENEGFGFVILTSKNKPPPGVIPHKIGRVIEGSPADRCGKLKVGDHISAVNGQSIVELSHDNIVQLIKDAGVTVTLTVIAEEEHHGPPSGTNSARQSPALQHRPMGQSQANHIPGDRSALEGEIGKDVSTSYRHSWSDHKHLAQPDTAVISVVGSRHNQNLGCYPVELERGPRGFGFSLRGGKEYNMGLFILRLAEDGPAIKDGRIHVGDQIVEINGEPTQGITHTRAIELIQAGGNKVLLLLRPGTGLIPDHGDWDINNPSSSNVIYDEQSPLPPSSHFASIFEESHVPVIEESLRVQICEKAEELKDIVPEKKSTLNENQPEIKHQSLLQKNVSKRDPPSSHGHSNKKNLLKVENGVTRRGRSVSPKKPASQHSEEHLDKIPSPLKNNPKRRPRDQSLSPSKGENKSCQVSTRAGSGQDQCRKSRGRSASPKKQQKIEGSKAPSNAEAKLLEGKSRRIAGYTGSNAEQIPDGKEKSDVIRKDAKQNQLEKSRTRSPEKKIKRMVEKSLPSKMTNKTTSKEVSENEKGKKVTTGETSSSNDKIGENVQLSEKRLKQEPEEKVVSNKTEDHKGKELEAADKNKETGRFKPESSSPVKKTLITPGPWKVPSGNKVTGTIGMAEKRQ
Excerpt: as §1, §2, §3, §4, §5

[3] = molecular target: T3, PDZ protein (GST-PDZ fusion) (Homo sapiens, UniProt Q6P0Q8)
T3 construct: made in house; host or cells: E. coli (DH5alpha, BL21 or JM109)
T3 sequence (Q6P0Q8 whole entry, the tested form may be a part): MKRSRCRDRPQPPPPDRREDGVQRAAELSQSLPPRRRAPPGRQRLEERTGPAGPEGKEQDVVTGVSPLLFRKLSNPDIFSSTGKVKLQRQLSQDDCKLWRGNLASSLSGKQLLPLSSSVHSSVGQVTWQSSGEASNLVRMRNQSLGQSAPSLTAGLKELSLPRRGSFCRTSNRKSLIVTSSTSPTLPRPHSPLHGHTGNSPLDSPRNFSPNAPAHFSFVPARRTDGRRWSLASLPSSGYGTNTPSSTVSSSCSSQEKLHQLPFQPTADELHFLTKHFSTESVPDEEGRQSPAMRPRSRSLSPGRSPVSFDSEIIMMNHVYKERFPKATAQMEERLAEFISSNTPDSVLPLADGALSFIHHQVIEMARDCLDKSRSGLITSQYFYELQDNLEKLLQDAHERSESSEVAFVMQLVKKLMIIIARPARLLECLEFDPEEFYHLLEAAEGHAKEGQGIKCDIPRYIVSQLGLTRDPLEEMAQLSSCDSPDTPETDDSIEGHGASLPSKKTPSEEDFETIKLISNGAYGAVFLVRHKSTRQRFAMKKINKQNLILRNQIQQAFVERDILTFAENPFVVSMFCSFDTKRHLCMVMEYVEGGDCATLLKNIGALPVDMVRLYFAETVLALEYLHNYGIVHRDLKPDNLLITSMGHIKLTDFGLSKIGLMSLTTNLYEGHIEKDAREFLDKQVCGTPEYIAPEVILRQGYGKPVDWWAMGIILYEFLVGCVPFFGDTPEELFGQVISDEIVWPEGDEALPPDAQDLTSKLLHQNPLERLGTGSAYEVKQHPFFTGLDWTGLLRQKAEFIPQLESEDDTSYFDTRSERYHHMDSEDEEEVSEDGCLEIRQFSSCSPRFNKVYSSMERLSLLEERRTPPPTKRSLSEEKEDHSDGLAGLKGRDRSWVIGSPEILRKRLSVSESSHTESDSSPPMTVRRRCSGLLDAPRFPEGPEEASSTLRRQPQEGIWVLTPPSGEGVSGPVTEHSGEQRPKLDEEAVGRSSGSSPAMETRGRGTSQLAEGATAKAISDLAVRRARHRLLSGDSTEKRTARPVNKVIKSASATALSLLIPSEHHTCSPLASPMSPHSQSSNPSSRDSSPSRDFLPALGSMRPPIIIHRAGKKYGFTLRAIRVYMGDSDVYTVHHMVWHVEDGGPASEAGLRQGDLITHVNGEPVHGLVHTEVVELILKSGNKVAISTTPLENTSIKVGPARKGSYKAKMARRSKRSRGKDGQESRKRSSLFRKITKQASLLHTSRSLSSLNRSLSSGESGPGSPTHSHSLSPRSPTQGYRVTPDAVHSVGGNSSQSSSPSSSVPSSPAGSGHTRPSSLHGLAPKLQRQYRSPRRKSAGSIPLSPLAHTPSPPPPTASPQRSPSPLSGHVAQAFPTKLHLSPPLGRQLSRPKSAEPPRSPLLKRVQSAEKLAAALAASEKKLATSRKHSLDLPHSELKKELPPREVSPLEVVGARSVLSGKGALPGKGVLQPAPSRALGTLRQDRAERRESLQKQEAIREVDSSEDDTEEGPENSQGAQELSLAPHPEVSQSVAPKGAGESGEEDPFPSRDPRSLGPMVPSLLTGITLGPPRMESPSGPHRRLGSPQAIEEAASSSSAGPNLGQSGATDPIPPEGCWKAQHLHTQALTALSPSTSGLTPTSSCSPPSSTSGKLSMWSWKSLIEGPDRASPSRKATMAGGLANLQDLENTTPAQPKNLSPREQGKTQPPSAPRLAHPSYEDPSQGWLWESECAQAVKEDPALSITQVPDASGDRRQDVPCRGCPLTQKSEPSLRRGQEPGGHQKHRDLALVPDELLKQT
Excerpt: as §1, §2, §3, §4, §5

[4] = tested on: PDZ protein (GST-PDZ fusion)
Excerpt: as §1, §2, §3, §4, §5

[5] = molecular target: T4, PDZ protein (GST-PDZ fusion) (Homo sapiens, UniProt O15018); details: PDZ AIPC, PDZ Domain 1
T4 construct: made in house; host or cells: E. coli (DH5alpha, BL21 or JM109)
Excerpt: as §1, §2, §3, §4, §5

[6] = molecular target: T5, PDZ protein (GST-PDZ fusion) (Homo sapiens, UniProt Q02410)
T5 construct: made in house; host or cells: E. coli (DH5alpha, BL21 or JM109)
T5 sequence (Q02410 1-837): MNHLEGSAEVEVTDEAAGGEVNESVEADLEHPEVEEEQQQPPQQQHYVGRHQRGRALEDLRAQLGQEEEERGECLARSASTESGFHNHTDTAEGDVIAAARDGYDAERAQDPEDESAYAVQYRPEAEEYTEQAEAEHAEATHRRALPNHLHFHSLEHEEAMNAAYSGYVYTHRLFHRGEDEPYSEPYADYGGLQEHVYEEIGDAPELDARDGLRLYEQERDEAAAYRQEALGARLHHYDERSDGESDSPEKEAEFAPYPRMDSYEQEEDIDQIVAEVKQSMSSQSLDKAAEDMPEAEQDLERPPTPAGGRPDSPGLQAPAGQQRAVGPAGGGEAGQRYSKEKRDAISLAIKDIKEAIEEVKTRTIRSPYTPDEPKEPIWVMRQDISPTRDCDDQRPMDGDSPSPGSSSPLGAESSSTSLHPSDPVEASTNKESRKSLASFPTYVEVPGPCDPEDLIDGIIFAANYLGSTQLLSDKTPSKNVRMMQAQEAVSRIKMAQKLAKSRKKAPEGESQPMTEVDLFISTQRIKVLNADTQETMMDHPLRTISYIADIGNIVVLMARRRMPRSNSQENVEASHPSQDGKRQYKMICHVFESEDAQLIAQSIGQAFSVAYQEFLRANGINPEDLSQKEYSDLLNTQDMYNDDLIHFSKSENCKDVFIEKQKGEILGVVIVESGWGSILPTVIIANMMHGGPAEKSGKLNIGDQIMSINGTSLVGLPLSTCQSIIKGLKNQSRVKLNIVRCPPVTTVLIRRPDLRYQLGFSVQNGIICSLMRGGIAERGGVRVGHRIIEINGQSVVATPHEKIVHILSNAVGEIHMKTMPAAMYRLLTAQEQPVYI
Excerpt: as §1, §2, §3, §4, §5

[7] = molecular target: T6, PDZ protein (GST-PDZ fusion) (Homo sapiens, UniProt O75970)
T6 construct: made in house; host or cells: E. coli (DH5alpha, BL21 or JM109)
T6 sequence (O75970 whole entry, the tested form may be a part): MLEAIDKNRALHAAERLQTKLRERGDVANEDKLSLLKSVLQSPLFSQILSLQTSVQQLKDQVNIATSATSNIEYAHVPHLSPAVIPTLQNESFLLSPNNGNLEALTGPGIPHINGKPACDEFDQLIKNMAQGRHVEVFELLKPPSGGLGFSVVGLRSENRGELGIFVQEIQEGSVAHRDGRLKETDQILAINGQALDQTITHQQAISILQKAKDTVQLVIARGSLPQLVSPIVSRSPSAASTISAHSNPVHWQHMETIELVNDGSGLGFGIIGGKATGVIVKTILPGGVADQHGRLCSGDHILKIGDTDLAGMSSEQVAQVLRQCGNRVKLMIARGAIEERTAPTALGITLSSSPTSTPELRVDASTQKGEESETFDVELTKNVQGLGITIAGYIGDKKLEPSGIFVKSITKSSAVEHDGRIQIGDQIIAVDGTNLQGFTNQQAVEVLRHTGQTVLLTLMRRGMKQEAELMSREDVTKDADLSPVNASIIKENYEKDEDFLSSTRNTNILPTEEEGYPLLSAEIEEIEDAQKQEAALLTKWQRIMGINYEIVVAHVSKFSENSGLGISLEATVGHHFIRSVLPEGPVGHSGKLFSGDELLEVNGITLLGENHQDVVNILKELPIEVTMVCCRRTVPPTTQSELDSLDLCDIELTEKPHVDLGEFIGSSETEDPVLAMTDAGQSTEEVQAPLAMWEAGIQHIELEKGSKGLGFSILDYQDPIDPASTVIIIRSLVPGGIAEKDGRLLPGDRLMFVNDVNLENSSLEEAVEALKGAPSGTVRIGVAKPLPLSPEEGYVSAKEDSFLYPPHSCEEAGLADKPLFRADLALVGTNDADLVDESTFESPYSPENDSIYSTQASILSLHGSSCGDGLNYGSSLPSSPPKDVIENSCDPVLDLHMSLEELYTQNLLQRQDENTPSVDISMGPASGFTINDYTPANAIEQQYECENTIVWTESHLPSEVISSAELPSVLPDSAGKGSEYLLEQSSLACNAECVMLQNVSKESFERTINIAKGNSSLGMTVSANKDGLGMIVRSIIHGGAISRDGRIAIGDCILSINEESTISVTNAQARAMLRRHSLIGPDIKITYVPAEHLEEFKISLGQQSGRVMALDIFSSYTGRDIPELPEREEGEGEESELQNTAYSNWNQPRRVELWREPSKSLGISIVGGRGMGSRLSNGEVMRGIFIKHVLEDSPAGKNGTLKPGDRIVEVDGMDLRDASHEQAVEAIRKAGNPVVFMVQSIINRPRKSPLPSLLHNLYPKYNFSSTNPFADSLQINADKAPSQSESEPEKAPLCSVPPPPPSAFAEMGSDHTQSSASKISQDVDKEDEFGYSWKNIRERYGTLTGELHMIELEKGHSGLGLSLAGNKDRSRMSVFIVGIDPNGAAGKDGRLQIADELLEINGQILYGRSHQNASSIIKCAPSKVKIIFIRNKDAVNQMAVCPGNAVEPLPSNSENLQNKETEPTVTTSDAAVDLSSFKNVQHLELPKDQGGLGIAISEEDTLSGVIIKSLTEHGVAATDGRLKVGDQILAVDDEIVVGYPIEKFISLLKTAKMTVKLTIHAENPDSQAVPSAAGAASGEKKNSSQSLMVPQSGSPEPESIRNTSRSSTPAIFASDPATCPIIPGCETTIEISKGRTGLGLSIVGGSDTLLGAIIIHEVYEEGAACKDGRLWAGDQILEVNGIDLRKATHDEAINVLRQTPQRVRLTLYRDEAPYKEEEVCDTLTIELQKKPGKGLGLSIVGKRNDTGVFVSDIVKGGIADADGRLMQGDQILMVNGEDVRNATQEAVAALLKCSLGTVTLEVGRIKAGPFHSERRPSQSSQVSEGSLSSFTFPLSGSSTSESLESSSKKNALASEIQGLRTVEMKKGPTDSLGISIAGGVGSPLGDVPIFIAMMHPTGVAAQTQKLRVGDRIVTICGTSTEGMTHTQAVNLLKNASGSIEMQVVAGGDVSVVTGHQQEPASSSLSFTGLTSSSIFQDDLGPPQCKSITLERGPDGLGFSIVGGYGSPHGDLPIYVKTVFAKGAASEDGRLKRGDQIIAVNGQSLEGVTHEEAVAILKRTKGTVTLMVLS
Excerpt: as §1, §2, §3, §4, §5

[8] = molecular target: T7, PDZ protein (GST-PDZ fusion) (Homo sapiens, UniProt Q12923); details: PDZ PTPL-1, PDZ Domain 4
T7 construct: made in house; host or cells: E. coli (DH5alpha, BL21 or JM109)
Excerpt: as §1, §2, §3, §4, §5

[9] = molecular target: T8, PDZ protein (GST-PDZ fusion) (Homo sapiens, UniProt Q8NI35); details: PDZ INADL, PDZ Domain 8
T8 construct: made in house; host or cells: E. coli (DH5alpha, BL21 or JM109)
Excerpt: as §1, §2, §3, §4, §5

[10] = PDZ KIAA807, PDZ Domain not given

Sequence: RDSFHRSSFRKAETQLSQGS (Biotin-RDSFHRSSFRKAETQLSQGS) [Clasp-5]
Classification ([3]; PDZ KIAA807): 1 (A450 nm 0-1)
Classification ([3]; PDZ KIAA0807(S), PDZ Domain 1): 1 (A450 nm 0-1)
Classification ([4]; PDZ BAI-1, PDZ Domain 2): 1 (A450 nm 0-1)
Classification ([4]; PDZ SHANK, PDZ Domain 1): 1 (A450 nm 0-1)

Sequence: VISKATPALPTVSISSSAEV (Biotin-VISKATPALPTVSISSSAEV) [Clasp-1]
Classification ([3]; PDZ KIAA0807(S), PDZ Domain 1): 1 (A450 nm 0-1)
Classification [3, 10]: 1 (A450 nm 0-1)
Classification [5]: 1 (A450 nm 0-1)
Classification ([6]; PDZ Mint 1, PDZ Domain 1, 2): 1 (A450 nm 0-1)

Sequence: KPQIAALKEETEEEVQDTRL (Biotin-KPQIAALKEETEEEVQDTRL)
Classification ([3]; PDZ KIAA0807(S), PDZ Domain 1): 2 (A450 nm 1-2)
Classification [3, 10]: 1 (A450 nm 0-1)
Classification ([4]; PDZ SHANK, PDZ Domain 1): 1 (A450 nm 0-1)

Sequence: SPQPDSTDNDDYDDISAA (Biotin-SPQPDSTDNDDYDDISAA) [CD6]
Classification ([3]; PDZ KIAA0807(S), PDZ Domain 1): 1 (A450 nm 0-1)
Classification [3, 10]: 1 (A450 nm 0-1)

The remaining lines, values ahead:

Classification [1]: 1 (A450 nm 0-1)
Classification [2]: 1 (A450 nm 0-1)
Sequence: GGEDFKTTNPSKQFDKNAYV (Biotin-GGEDFKTTNPSKQFDKNAYV) [claudin 10]

Classification ([7]; PDZ MUPP-1, PDZ Domain 3): 1 (A450 nm 0-1)
Classification ([7]; PDZ MUPP-1, PDZ Domain 7): 1 (A450 nm 0-1)
Classification ([7]; PDZ MUPP-1, PDZ Domain 9): 1 (A450 nm 0-1)
Classification ([3]; PDZ KIAA0807(S), PDZ Domain 1): 1 (A450 nm 0-1)
Classification ([3]; PDZ KIAA807 (domain not given)): 1 (A450 nm 0-1)
Classification [8]: 2 (A450 nm 1-2)
Sequence: PVYIVQEMPPQSPANIYYKV (Biotin-PVYIVQEMPPQSPANIYYKV) [ephrin B1]

Classification [8]: 2 (A450 nm 1-2)
Sequence: PRLKRMQQFEDLEDEIPQFV (Biotin-PRLKRMQQFEDLEDEIPQFV) [RhoGAP 1 (PTPL1-associated)]

Classification ([6]; PDZ Mint 1, PDZ Domain 1, 2): 1 (A450 nm 0-1)
Sequence: LGYSIPSRSGASGLDKRDYV (Biotin-LGYSIPSRSGASGLDKRDYV) [claudin 9]

Classification [9]: 1 (A450 nm 0-1)
Classification ([6]; PDZ Mint 1, PDZ Domain 2): 1 (A450 nm 0-1)
Sequence: SYPTPRPYPKPAPSSGKDYV (Biotin-SYPTPRPYPKPAPSSGKDYV) [claudin 1]
